T1: wild type ACVR1 (Homo sapiens, UniProt Q04771)
T1 construct: an iPS cell line with the ACVR1 gene mutation repaired to the normal type (wild type) by gene repair by a BAC knockin vector; endogenous in cells; host or cells: mesenchymal stem cell-like cells differentiated from the gene-corrected iPS cell clone
T1 sequence (Q04771 21-509): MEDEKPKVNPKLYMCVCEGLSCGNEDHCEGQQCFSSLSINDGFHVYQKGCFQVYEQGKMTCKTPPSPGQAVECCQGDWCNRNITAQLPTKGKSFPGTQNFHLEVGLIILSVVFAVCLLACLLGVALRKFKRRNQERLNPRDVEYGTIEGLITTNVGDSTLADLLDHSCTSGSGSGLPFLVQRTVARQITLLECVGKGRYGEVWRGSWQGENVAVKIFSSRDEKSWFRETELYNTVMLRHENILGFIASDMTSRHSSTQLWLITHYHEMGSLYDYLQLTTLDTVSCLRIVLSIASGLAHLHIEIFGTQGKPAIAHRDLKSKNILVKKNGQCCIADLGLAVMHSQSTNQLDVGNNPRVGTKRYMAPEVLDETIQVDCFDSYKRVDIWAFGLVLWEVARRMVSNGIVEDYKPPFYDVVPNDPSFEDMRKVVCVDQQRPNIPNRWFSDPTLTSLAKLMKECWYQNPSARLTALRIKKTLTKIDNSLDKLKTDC

B1: BMP-7: Recombinant Human BMP-7 (R&D Systems); cytokine of the BMP family (protein)
chain: STGSKQRSQNRSKTPKNQEALRMANVAENSSSDQRQACKKHELYVSFRDLGWQDWIIAPEGYAAYYCEGECAFPLNSYMNATNHAIVQTLVHFINPETVPKPCCAPTQLNAISVLYFDDSSNVILKKYRNMVVRACGCH

How the values were obtained:
wild type ACVR1 = molecular target: T1, wild type ACVR1; assay: Luciferase reporter (BMP responsive sequence) transcription activity in gene-corrected clone derived cells; format: cell-based; conditions: ligand 1, 10, 100 ng/mL, 16 hours
Text: Following the method of Yamanaka et al. (Cell, 2007, 131 (5), […]), FOP patient-derived iPS cells (hereunder also referred to as “patient-derived iPS cell line”) were established. The patient cells were confirmed to be cells having a typical FOP-associated mutation in the ACVR1 gene. The mutation is a substitution of the 206th arginine residue of the amino acid sequence of ACVR1 (the amino acid sequence listed as SEQ ID NO: 10) with a histidine residue. Next, for use as a control, an iPS cell line with the ACVR1 gene mutation repaired to the normal type (wild type) by gene repair by a BAC knockin vector (hereunder also referred to as “gene-corrected iPS cell clone” or “gene-rescued iPS cell clone”) was established.
The patient-derived iPS cell line and gene-corrected iPS cell line were cultured on the matrix of a Matrigel coated plate (trade name: Growth Factor Reduced (GFR)BD Matrigel® by Becton & Dickinson), using mTeSR1 (Stem Cell Technologies) for 2 days under feeder-free conditions. Next, using serum-free medium [F12 Nutrient Mixture (product of Gibco)/Iscove's Modified Dulbecco's Medium (IMDM) (product of Sigma-Aldrich Japan, KK.)/0.5% bovine serum albumin (BSA) (product of Sigma-Aldrich Japan, KK.)/1% Chemically Defined Lipid (CD-Lipid) (product of Gibco, trade name: Chemically Defined Lipid Concentrate)/15 μg/mL apotransferrin (product of Sigma-Aldrich Japan, KK., trade name: apo-Transferrin human)/7 μg/mL insulin (product of Wako Pure Chemical Industries, Ltd., trade name: Insulin, Human, recombinant)/0.45 mM 1-Thioglycerol (product of Sigma-Aldrich Japan, KK.)] with addition of 10 μM SB-431542 (product of Selleck Chemicals) and 1 μM CHIR99021 (product of Wako Pure Chemical Industries, Ltd.), the patient-derived iPS cell line and gene-corrected iPS cell line were further cultured for 1 week under feeder-free conditions for differentiation to neural crest cells. […]
After mixing Firefly luciferase reporter plasmid having the BMP responsive sequence in the promoter region (J. Biol. Chem., 2002, 277(7), 4883-4891) and a plasmid having a nucleic acid sequence coding for Renilla luciferase downstream from CMV promoter, as an internal standard (product of Promega Corp., trade name: phRL-CMV Vector), FuGene® HD (Promega Corp.) was used for transfection into the mesenchymal stem cell-like cells. […] Next, the luciferase activity was measured according to the protocol provided with a Dual-Glo Luciferase Assay System (product of Promega Corp.). The luminescence was detected using an EnVision Multilabel Counter (product of Perkin-Elmer). […]

[1] = system: FOP patient derived cells; assay: Differentiation to chondrocytes (Alcian blue, sulfated glycosaminoglycan assay) of FOP patient derived cells; format: cell-based, human; conditions: for cartilage induction (sulfated glycosaminoglycan assay): 100 ng/mL activin A, vs untreated group
Procedure: Mesenchymal stem cell-like cells from a patient iPS cell line and a gene-corrected iPS cell clone were each prepared by the same method as Example 1. The mesenchymal stem cell-like cells were cultured for 6 days under the medium conditions used in the method of Umeda et al. (Sci. Rep., 2012, 2, 455), for differentiation to chondrocytes. During differentiation, 100 ng/mL of human activin A, 100 ng/mL of human BMP-7 or 1 ng/mL of human TGF-β3 (product of R&D Systems, Inc., trade name: Recombinant Human TGF-beta 3) was added and the effect of each factor on differentiation to chondrocytes was examined. The extent of differentiation to chondrocytes was measured with Alcian blue dye and a sulfated glycosaminoglycan assay kit (product of Biocolor, Ltd., trade name: Blyscan Glycosaminoglycan Assay Kit). In FIG. 4, the bar graph indicates the mean values for each treated group, and the error bars represent S.D.

[2] = FOP patient derived cells, 100 ng/mL BMP-7 or 1 ng/mL TGF-β3, 6 days

Molecule | transcription activity via ACVR1 (firefly/Renilla luciferase activity, BMP responsive sequence) (wild type ACVR1) | sulfated glycosaminoglycan production in FOP patient derived cells compared to gene-corrected cells ([1]; 100 ng/mL, 6 days) | cartilage induction (sulfated glycosaminoglycan assay) [1, 2] | differentiation to chondrocytes (Alcian blue staining) ([1]; FOP patient derived cells, 100 ng/mL, 6 days) | cartilage induction effect compared to the effect exhibited by activin A on FOP patient derived cells ([1]; 100 ng/mL BMP-7 or 1 ng/mL TGF-β3, 6 days)
human activin A: Recombinant Human/Mouse/Rat Activin A (R&D Systems); homodimer of inhibin βA chains | not seen | 4 fold | very notably enhances | notably enhances | 
B1 | increased in a concentration-dependent manner |  | significantly enhanced |  | weaker

Reference: patent publication US10260068B2, “Prophylactic agent and therapeutic agent for fibrodysplasia ossificans progressiva” (Sumitomo Dainippon Pharma Co., Ltd., priority 2014, dated 2019)
